Measured values as given in IntAct's records for PubMed 24863370.

B1: Calvin cycle protein CP12, chloroplastic (Chlamydomonas reinhardtii), A6Q0K5 (parent)
chain: MMLTKSVVISRPAVRPVSTRRAVVVRASGQPAVDLNKKVQDAVKEAEDACAKGTSADCAVAWDTVEELSAAVSHKKDAVKADVTLTDPLEAFCKDAPDADECRVYED
partner: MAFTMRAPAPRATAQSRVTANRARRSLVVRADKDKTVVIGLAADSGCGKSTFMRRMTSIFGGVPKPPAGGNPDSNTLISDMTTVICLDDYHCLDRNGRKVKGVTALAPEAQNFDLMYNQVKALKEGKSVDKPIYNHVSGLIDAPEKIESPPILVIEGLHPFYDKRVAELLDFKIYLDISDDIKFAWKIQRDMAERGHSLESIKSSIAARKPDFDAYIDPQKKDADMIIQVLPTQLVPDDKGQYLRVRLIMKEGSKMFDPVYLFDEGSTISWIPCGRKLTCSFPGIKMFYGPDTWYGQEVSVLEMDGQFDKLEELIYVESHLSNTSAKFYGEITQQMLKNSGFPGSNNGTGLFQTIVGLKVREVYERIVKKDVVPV
B2: Calvin cycle protein CP12, chloroplastic (Chlamydomonas reinhardtii), A6Q0K5 (parent)
chain: B1 chain
partner: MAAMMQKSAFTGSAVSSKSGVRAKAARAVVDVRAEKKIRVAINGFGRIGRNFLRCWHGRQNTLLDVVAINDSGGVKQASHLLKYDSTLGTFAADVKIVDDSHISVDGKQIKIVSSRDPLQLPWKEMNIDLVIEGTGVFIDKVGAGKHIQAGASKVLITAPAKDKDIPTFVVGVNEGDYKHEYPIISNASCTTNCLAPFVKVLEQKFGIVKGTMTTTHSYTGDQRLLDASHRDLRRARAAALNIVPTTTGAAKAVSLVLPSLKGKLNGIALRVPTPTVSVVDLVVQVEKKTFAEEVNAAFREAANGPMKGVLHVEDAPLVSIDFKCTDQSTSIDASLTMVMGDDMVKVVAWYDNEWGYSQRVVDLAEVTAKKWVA

Variants of: B1
Conditions: with kppr_chlre PRKA

Row | Variant | effect of a mutation on the interaction
1 | MMLTKSVVISRPAVRPVSTRRAVVVRASGQSAVDLNKKVQDAVKEAEDACAKGTSADCAVAWDTVEELSAAVSHKKDAVKADVTLTDPLEAFCKDAPDADECRVYED [P31S] | decreasing interaction

Variants of: B2
Conditions: with g3pa_chlre GAPA

Row | Variant | effect of a mutation on the interaction
2 | MMLTKSVVISRPAVRPVSTRRAVVVRASGQPAVDLNKKVQDAVKEAEDACAKGTSADCAVAWDTVEELSAAVSHSKDAVKADVTLTDPLEAFCKDAPDADECRVYED [K75S] | decreasing interaction
